Experimental data published in publication PMC10250230, “Negatively charged, intrinsically disordered regions can accelerate target search by DNA-binding proteins”.

B1: unlabeled cisplatin-modified DNA (dsDNA)
DNA 1: CTCTGGACCTTCCTTTCTTC
DNA 2: GAAGAAAGGAAGGTCCAGAG
modifications: cisplatin adduct

Legend:
[1] = molecular target: Antp HD (control without DERT; Antp HD-MID) (UniProt P02833); test: fluorescence anisotropy; conditions: pH 5.8, 200 mM KCl, Antp Kd: 20 mM potassium succinate pH 5.8, 0.4 mM NaF, HMGB1: 10 mM K phosphate pH 7.5, 1 mM DTT, 1 mM MgCl2, 100 mM KCl, 25 C, Antp stopped-flow: …
Chain of Antp HD (control without DERT; Antp HD-MID) (P02833 whole entry): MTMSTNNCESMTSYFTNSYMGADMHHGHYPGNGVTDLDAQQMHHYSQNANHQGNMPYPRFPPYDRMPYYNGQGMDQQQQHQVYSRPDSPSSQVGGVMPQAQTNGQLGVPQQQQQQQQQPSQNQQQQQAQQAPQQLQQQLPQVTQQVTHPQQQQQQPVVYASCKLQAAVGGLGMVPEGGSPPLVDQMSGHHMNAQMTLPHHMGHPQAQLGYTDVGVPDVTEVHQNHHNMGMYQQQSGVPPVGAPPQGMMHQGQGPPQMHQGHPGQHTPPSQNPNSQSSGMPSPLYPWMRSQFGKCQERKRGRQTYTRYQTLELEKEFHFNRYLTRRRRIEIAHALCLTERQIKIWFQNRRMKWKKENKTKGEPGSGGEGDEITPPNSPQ

Antp HD-DERT7 = Antp HD-DERT7 (UniProt P02833); test: fluorescence anisotropy; conditions: pH 5.8, 200 mM KCl, Antp Kd: 20 mM potassium succinate pH 5.8, 0.4 mM NaF, HMGB1: 10 mM K phosphate pH 7.5, 1 mM DTT, 1 mM MgCl2, 100 mM KCl, 25 C, Antp stopped-flow: …
Chain of Antp HD-DERT7 (P02833 whole entry): as above

Antp HD-DERT11 = Antp HD-DERT11 (UniProt P02833); test: fluorescence anisotropy; conditions: pH 5.8, 200 mM KCl, Antp Kd: 20 mM potassium succinate pH 5.8, 0.4 mM NaF, HMGB1: 10 mM K phosphate pH 7.5, 1 mM DTT, 1 mM MgCl2, 100 mM KCl, 25 C, Antp stopped-flow: …
Chain of Antp HD-DERT11 (P02833 whole entry): as above

Antp HD-DERT16 = Antp HD-DERT16 (UniProt P02833); test: fluorescence anisotropy; conditions: pH 5.8, 200 mM KCl, Antp Kd: 20 mM potassium succinate pH 5.8, 0.4 mM NaF, HMGB1: 10 mM K phosphate pH 7.5, 1 mM DTT, 1 mM MgCl2, 100 mM KCl, 25 C, Antp stopped-flow: …
Chain of Antp HD-DERT16 (P02833 whole entry): as above

HMGB1 full-length = HMGB1 full-length (human, UniProt P09429 1-215); test: competition (fluorescence anisotropy); 10 mM K phosphate pH 7.5, 1 mM DTT, 1 mM MgCl2, 100 mM KCl, 25 C; apparent Kd; Antp Kd: 20 mM potassium succinate pH 5.8, 0.4 mM NaF, 200 mM KCl; HMGB1: 10 mM K phosphate pH 7.5, 1 mM DTT, 1 mM MgCl2, 100 mM KCl, 25 C; Antp stopped-flow: 1; conditions: protein: recombinant
Chain of HMGB1 full-length (P09429 whole entry): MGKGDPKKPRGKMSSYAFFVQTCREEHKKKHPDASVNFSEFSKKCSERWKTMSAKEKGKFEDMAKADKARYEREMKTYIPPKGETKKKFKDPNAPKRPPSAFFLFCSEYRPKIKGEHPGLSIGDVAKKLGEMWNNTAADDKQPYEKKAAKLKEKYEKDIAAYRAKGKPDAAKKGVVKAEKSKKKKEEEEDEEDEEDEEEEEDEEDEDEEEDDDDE

Molecule | Kd [1] [nM] | Kd (Antp HD-DERT7) [nM] | Kd (Antp HD-DERT11) [nM] | Kd (Antp HD-DERT16) [nM] | Kd (HMGB1 full-length) [nM]
TAMRA-labeled 15-bp Antp recognition DNA | 2.6 | 19 | 69 | 61 | 
B1 |  |  |  |  | 17 ± 3
